Source: PMC2680917 (Cell, 2009)

Legend:
Homer1b (rat) = test: AUC
Shank1CΔPEST = test: co-sedimentation
[1] = biological target: Homer1b I332R/I337E (rat); test: AUC
Homer1bΔ329 (rat) = test: AUC
crystal structure = biological target: the molecule itself; test: crystal structure

Molecule: Homer1b (natural protein)
- stoichiometry N (Homer1b (rat)): 4.2 mer
- percent precipitated (Shank1CΔPEST): 50%
- stoichiometry N (Homer:Shank molar ratio) (Shank1CΔPEST): 1

Molecule: Homer1b I332R/I337E (natural protein)
- stoichiometry N [1]: 2 mer

Molecule: Homer1bΔ329 (domain or fragment)
- stoichiometry N (Homer1bΔ329 (rat)): 2.1 mer

B1: Homer3CC2 (287 – carboxy-terminus of Homer3a) (domain or fragment, human, UniProt Q9NSC5 287-361, looked up)
chain: AAEREETQQKVQDLETRNAELEHQLRAMERSLEEARAERERARAEVGRAAQLLDVSLFELSELREGLARLAEAAP
- binding result (crystal structure): binds
